What was measured:
[1] = biological target: T1, TIAH/LH, MMP2 selective substrate
T1 chain: TIAHLH

[2] = biological target: T2, YGRAAA (SEQ ID NO: 17), uPA selective substrate
T2 chain: YGRAAA

B1: MMP-2 (protein)
chain: YNFFPRKPKWDKNQITYRIIGYTPDLDPETVDDAFARAFQVWSDVTPLRFSRIHDGEADIMINFGRWEHGDGYPFDGKDGLLAHAFAPGTGVGGDSHFDDDELWTLGEGQVVRVKYGNADGEYCKFPFLFNGKEYNSCTDTGRSDGFLWCSTTYNFEKDGKYGFCPHEALFTMGGNAEGQPCKFPFRFQGTSYDSCTTEGRTDGYRWCGTTEDYDRDKKYGFCPETAMSTVGGNSEGAPCVFPFTFLGNKYESCTSAGRSDGKMWCATTANYDDDRKWGFCPDQGYSLFLVAAHEFGHAMGLEHSQDPGALMAPIYTYTKNFRLSQDDIKGIQELYGASPDIDLGTGPTPTLGPVTPEICKQDIVFDGIAQIRGEIFFFKDRFIWRTVTPRDKPMGPLLVATFWPELPEKIDAVYEAPQEEKAVFFAGNEYWIYSASTLERGYPKPLTSLGLPPDVQRVDAAFNWSKNKKTYIFAGDKFWRYNEVKKKMDPGFPKLIADAWNAIPDNLDAVVDLQGGGHSYFFKGAYYLKLENQSLKSVKFGSIKSDWLGC
- cleavage of ACPP substrate by protease [1]: selectively cleaved by MMP-2 versus 9 and 14

B2: tissue plasminogen activator (tPA) (protein)
chain: SYQVICRDEKTQMIYQQHQSWLRPVLRSNRVEYCWCNSGRAQCHSVPVKSCSEPRCFNGGTCQQALYFSDFVCQCPEGFAGKCCEIDTRATCYEDQGISYRGTWSTAESGAECTNWNSSALAQKPYSGRRPDAIRLGLGNHNYCRNPDRDSKPWCYVFKAGKYSSEFCSTPACSEGNSDCYFGNGSAYRGTHSLTESGASCLPWNSMILIGKVYTAQNPSAQALGLGKHNYCRNPDGDAKPWCHVLKNRRLTWEYCDVPSCSTCGLRQYSQPQFRIKGGLFADIASHPWQAAIFAKHRRSPGERFLCGGILISSCWILSAAHCFQERFPPHHLTVILGRTYRVVPGEEEQKFEVEKYIVHKEFDDDTYDNDIALLQLKSDSSRCAQESSVVRTVCLPPADLQLPDWTECELSGYGKHEALSPFYSERLKEAHVRLYPSSRCTSQHLLNRTVTDNMLCAGDTRSGGPQANLHDACQGDSGGPLVCLNDGRMTLVGIISWGLGCGQKDVPGVYTKVTNYLDWIRDNMRP
- cleavage of ACPP substrate by protease [2]: to a lesser extent by tPA
